In test [1] the test system is optic nerve. In words: optic nerve regeneration in vivo after nerve crush, intraocular PLGA microspheres. More on the design: species or system rat. The note with it: 2 weeks, agent by itself. The protocol: Microspheres were prepared from lyophilized oncomodulin or sp-8-Br-cAMPs (Sigma) with PLGA using the solvent evaporation method of single emulsion^49. To measure the rate of protein release in vitro, 10 mg of oncomodulin-containing beads were incubated in phosphate-buffered saline (PBS; 37° C.). Supernatants were collected every 3 d and analyzed on western blots.
Optic nerve surgery was carried out on male Fisher rats (200-250 g) as described^18. Three days after nerve crush, rats received intraocular injections of blank microspheres or microspheres containing oncomodulin, sp-8-Br-cAMPs or both, in 10 μl saline after the same fluid volume was withdrawn from the eye (n=8-12 per group). Rats were killed 2 weeks later and their retinas, with optic nerves attached, were prepared as described^18,21. Axon growth was evaluated by GAP-43 immunostaining in the optic nerve at distances of 500 μm and 1 mm from the injury site^18,21. The length of the longest axon was measured in each case and averaged across all cases within each group.

Test [2] deals with RGCs. Put plainly: RGC survival in primary retinal cultures. Format: cell-based, rat. To be noted: retinal culture. Here is the method: (§1) Adult rat retinal cultures were prepared as described^21. […] One week later, retinas were dissected, dissociated, and the cells plated in defined, serum-free medium. Axon growth (% RGCs extending axons ≧30 μm, ≧70 μm or ≧140 μm in length) was evaluated after 3 d in quadruplicate samples in a blinded fashion. All experiments were repeated at least three separate times. In some instances, cells were immunostained with GAP-43 antibody (1:500, Chemicon).

The subject of test [3] is DRG neurons. Put plainly: neurite outgrowth of naive DRG neurons in culture. Format: cell-based, rat. To be noted: 3 d culture. The protocol:
(§2) L4-L5 DRGs from adult male Sprague-Dawley rats (250-300 g) were injected with 5 μl of saline or oncomodulin (200 ng μl^−1). After 7 d, injected ganglia were dissected and single-cell suspensions were prepared as described^50. Cells were cultured on laminin (Sigma) with or without CSPGs (Chemicon) for 20 h or 40 h. In some cases, chondroitinase ABC (0.5 U ml^−1, Seikagaku) was added. Neurite outgrowth was visualized by Tuj1 antibody to class III β-tubulin (1:5,000, Babco) and quantified in quadruplicate samples by a blinded observer. In other studies, L4-L5 DRG neurons were cultured in the presence of absence of oncomodulin, mannose and/or forskolin in RPMI-1640 to limit spontaneous outgrowth. Cells were fixed and immunostained after 3 d and evaluated for outgrowth.

Test [4] concerns RGCs. In words: axon outgrowth in primary adult retinal cultures. Format: cell-based, rat. The protocol:
Protein A beads (Sigma) were incubated with either rabbit anti-OM antiserum (Swant) or normal rabbit serum (Invitrogen) for 16 h at 4° C. After extensive rinsing, beads with adsorbed IgGs were mixed with MCM (1 ml 10× concentrate, collected 8 h after zymosan treatment) for 24 h at 4° C. and then pelleted down by centrifugation. We tested 5 μl of the supernatants or untreated MCM for oncomodulin by western blotting. Bioactivity of immune-depleted and control MCM was tested in dissociated RGC cultures as described below at a 1:4 dilution, a concentration found to give a near-maximal response.
as §1

Test [5] concerns P-CREB. In words: P-CREB immunostaining in RGCs after intravitreous injection. Format: in vivo, rat. The note with it: 2 h after intravitreous injection, 1 μg μl^−1, 5 μl. The protocol: To investigate the immediate effects of oncomodulin in vivo, rats received an intravitreous injection of the protein (1 μg μl^−1, 5 μl volume, n=6) and were killed 2 h later. Retinal sections were immunostained to detect the phosphorylated form of the transcriptional activator CREB (antibody to P-CREB, 1:100, Cell Signaling Technology). Fluorescent photomicrographs were taken 2 mm from the optic nerve head.

For test [6], the system named is DRG neurons. Put plainly: neurite outgrowth of DRG neurons cultured after intraganglionic injection in vivo. Type of test: cell-based, rat. The protocol: as §2
Test [7] deals with RGCs. Put plainly: ligand binding assay with AP-oncomodulin fusion proteins on immunopurified RGCs. More on the design: species or system rat. The protocol: Adult rat retinal cells were dissociated as above and then isolated by immunopanning^31,46 using antibody MAC1 followed by an antibody to Thy1 (Chemicon). Purity was ˜98% based upon counting Fluorogold-labeled versus total cells. RGCs, treated with or without forskolin, were lightly fixed after 14-16 h in culture (4% paraformaldehyde (PFA), 6 min) before binding assays.
Binding assays were carried out as described^48 with slight modifications. Briefly, lightly fixed, immunopurified RGCs were incubated with AP-OM or AP (37° C., 24 h).
After extensive rinsing, cells were fixed again, heated (65° C., 90 min) to destroy endogenous AP and incubated with nitro blue tetrazolium chloride/5-bromo-4-chloro-3-indoyl phosphate toluidine salt (BCIPINBT). In some instances, AP-OM or AP (control), with or without forskolin, was added to the cultures before the initial fixation. Absorbance was measured with Image J software (US National Institutes of Health) and corrected by subtracting the level of AP binding. Binding curves and Scatchard plots were generated using Prism software. For displacement studies, varying concentrations of unlabeled oncomodulin were added to cultures after the equilibrium binding of 40 mM AP-OM at 37° C. for 24 h.

[8] abbreviates: in the absence of forskolin and mannose.
The mark [9] stands for this setting: in the presence of forskolin and mannose, 3 d, BDNF 50 ng ml^−1, CNTF 10 ng ml^−1, GDNF 50 ng ml^−1.

“Also recorded” adds a separate entry of the source.

B1: oncomodulin: 11.7-kDa Ca2+-binding protein secreted by macrophages; recombinant rat oncomodulin expressed in Escherichia coli (protein)
chain: SITDILSAEDIAAALQECQDPDTFEPQKFFQTSGLSKMSASQVKDIFRFIDNDQSGYLDGDELKYFLQKFQSDARELTESETKSLMDAADNDGDGKIGADEFQEMVHS
For the molecule B1, the “axon regeneration in optic nerve” value in test [1] is “had no effect”. The RGC survival result in test [2] is on record as “Neither oncomodulin nor any other factor enhanced RGC survival above baseline”. Besides, in test [3], the “outgrowth of previously untreated DRG neurons” value was “acts on previously untreated DRG neurons”. For the same molecule, the EC50 in test [4] (RGCs, forskolin and mannose present, read-out: effective concentration for half-maximum response (EC50), axon outgrowth) was approximately 3.8 nM. The entries for the “axon outgrowth from RGCs in culture” value in test [4] (setting [8]) and in test [4] (setting [9]) were “Neither oncomodulin nor any of the other factors stimulated outgrowth” and “nearly doubled the amount of outgrowth”, respectively. The “level of P-CREB in RGCs” value in test [5] is “markedly increased”. For the same molecule, the “DRG neurite outgrowth on nonpermissive substrate” value in test [6] (CSPG substrate) is “promoted some outgrowth; also recorded: stimulated some outgrowth”. Besides, the “DRG neurite outgrowth on permissive substrate” value in test [6] (exposed in vivo 1 week, poly-D-lysine+laminin, vs vehicle) is “considerably greater outgrowth”. Besides, the “concentration at which binding saturated” value in test [7] (AP-OM binding to RGCs) was “greater than 100 nM”. For the same molecule, in test [7] (AP-OM, forskolin-treated RGCs, Scatchard plot, read-out: dissociation constant (Kd), binding to RGCs), the Kd was 28 ± 5 nM. Moreover, the 50% inhibitory concentration (IC50) in test [7] (displacement of AP-OM by unlabeled oncomodulin, read-out: IC50, reversibility of binding to RGCs) was approximately 30 nM. For the same molecule, in test [7] (excess unlabeled competitor (100-fold)), the “displacement of AP-OM from RGCs” value is “displaced AP-OM from RGCs”.

B2: AP-OM: alkaline phosphatase (AP)-oncomodulin fusion protein (protein)
chain: MSITDILSAEDIAAALQECQDPDTFEPQKFFQTSGLSKMSASQVKDIFRFIDNDQSGYLDGDELKYFLQKFQSDARELTESETKSLMDAADNDGDGKIGADEFQEMVHS
modifications: left off: large carriers; small tags and cut ends
notes: alkaline phosphatase (AP)-oncomodulin fusion protein
Regarding B2, the “binding to RGCs” value was “bound strongly” in test [7] ([cAMP]i elevated with forskolin); “Neither AP-OM nor AP showed appreciable binding” in test [7] (basal conditions (no forskolin)); “bound even without previous forskolin treatment” in test [7] (untreated RGCs permeabilized after light fixation, no forskolin).

B3: BDNF: brain-derived neurotrophic factor (protein, UniProt P23560 19-247, looked up)
Neurotrophic factor BDNF …: APMKEANIRGQGGLAYPGVRTHGTLESVNGPKAGSRGLTSLADTFEHVIEELLDEDQKVRPNEENNKDADLYTSRVMLSSQVPLEPPLLFLLEEYKNYLDAANMSMRVRRHSDPARRGELSVCDSISEWVTAADKKTAVDMSGGTVTVLEKVPVSKGQLKQYFYETKCNPMGYTKEGCRGIDKRHWNSQCRTTQSYVRALTMDSKKRIGWRFIRIDTSCVCTLTIKRGR
As to B3, the “axon outgrowth from RGCs in culture” value in test [4] (setting [8]) is given as “Neither oncomodulin nor any of the other factors stimulated outgrowth”; in test [4] (setting [9]) it was “ineffective”.

B4: CNTF: ciliary neurotrophic factor (protein, UniProt P26441 1-200, looked up)
Ciliary neurotrophic factor: MAFTEHSPLTPHRRDLCSRSIWLARKIRSDLTALTESYVKHQGLNKNINLDSADGMPVASTDQWSELTEAERLQENLQAYRTFHVLLARLLEDQQVHFTPTEGDFHQAIHTLLLQVAAFAYQIEELMILLEYKIPRNEADGMPINVGDGGLFEKKLWGLKVLQELSQWTVRSIHDLRFISSHQTGIPARGSHYIANNKKM
In the case of B4, the results for the “axon outgrowth from RGCs in culture” value in test [4] (setting [8]) and in test [4] (setting [9]) were “Neither oncomodulin nor any of the other factors stimulated outgrowth” and “increased axon growth”, respectively.

For the origin of these results see US20090156496A1, “METHODS AND COMPOSITIONS FOR TREATING AND PREVENTING PERIPHERAL NERVE DAMAGE” (CHILDREN'S MEDICAL CENTER CORPORATION, INC., priority 2006, published 2009).
